Results reported in article doi:10.1101/2025.04.24.648904 (bioRxiv, 2025).

Molecular target: Hsp90 (Hsp82), full length (S. cerevisiae, UniProt P02829 1-709)
Test: AUC

Chain of Hsp90 (Hsp82), full length (P02829 whole entry): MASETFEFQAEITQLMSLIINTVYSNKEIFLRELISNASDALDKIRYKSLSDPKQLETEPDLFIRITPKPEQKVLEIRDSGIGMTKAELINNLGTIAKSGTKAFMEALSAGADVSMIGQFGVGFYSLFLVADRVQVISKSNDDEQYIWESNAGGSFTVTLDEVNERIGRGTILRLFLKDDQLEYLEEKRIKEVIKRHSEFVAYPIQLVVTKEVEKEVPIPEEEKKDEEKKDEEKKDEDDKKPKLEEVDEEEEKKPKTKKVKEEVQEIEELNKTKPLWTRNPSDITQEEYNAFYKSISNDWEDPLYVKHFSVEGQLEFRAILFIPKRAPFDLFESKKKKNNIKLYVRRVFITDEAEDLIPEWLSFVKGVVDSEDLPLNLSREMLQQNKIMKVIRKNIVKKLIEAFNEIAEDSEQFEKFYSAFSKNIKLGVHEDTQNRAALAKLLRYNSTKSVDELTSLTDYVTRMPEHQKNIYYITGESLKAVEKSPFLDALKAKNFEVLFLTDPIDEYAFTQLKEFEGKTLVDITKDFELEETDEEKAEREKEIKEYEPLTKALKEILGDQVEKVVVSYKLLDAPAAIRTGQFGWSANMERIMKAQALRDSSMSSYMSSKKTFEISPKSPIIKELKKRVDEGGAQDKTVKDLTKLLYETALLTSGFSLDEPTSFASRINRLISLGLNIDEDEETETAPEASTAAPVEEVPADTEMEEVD

B1: Sgt1 (Suppressor of the G2 Allele of Skp1), full length (natural protein, S. cerevisiae, UniProt Q08446 1-395, looked up)
chain: MPVEKDLKTAYKALYDEKEPLKALHLYDEILKGSPTNLTALIFKAACLEKLYFGFSDWHSDATMENAKELLDKALMTAEGRGDRSKIGLVNFRYFVHFFNIKDYELAQSYFKKAKNLGYVDDTLPLWEDRLETKLNKKNKKQKDSTNKHTIKPVESIENRGDNNSSHSPISPLKIETAPQESPKFKIDWYQSSTSVTISLFTVNLPESKEQVNIYISPNDRRTLSISYQVPKSGSEFQYNAKLSHEVDPKAVSLKIFPKKLEITLSKIDSTQWKKLEEDILTESSRLSDEGKNSDSATRLLSAETASKERLSYPSSSKKKIDWSKLDIDEEADEEAGSADSFFQKLYAGADPDTKRAMMKSFIESNGTALSTDWEDVSKGTVKTSPPEGMEPKHW
modifications: Atto488 (maleimide) label where it is the labeled species in aUC
Kd: 510 nM
